The target of assay [1] is HLA-A*01:01. The assay is described as follows: IEDB peptide-MHC binding, purified MHC/direct/fluorescence; filed as Kd, often an IC50 or EC50 that approximates it; ≥ and ≤ were set here for values at or beyond the usual limits of such assays.
A further assay has as its target HLA-A*02:01. The description is as above.
The target of another assay is HLA-A*03:01. Described as above.
For assay [2], the target named is HLA-A*11:01. Described as above.
Another assay addresses HLA-A*26:01. The description is as above.
The next assay deals with HLA-A*30:01. Described as above.
The target in assay [3] is HLA-A*69:01. Described as above.
Assay [4] has as its target HLA-B*07:02. Described as above.
The target in the next assay is HLA-B*08:01. The assay is described as above.
Assay [5] concerns the target HLA-B*15:01. The assay is described as above.
The target in another assay is HLA-B*27:05. The assay is described as above.
A further assay has as its target HLA-B*40:01. Described as above.
A further assay concerns the target HLA-B*44:02. The description is as above. The settings on record: source organism: Giardia lamblia ATCC 50803.
The next assay deals with HLA-B*58:01. Described as above.
The next assay has as its target HLA-A*31:01. Described as above.
The next assay addresses HLA-B*15:09. Described as above. To be noted: source organism: Brucella suis ATCC 23445.
In assay [6] the target is HLA-B*18:01. The assay is described as above. The settings on record: source organism: Brucella abortus.
In another assay the target is HLA-B*38:01. Described as above.
The target in another assay is HLA-B*46:01. Described as above.
Another assay has as its target HLA-B*48:01. The assay is described as above.
The next assay concerns the target HLA-A*02:06. The experiment in a line: IEDB peptide-MHC binding, purified MHC/competitive/fluorescence; filed as Kd, often an IC50 or EC50 that approximates it; ≥ and ≤ were set here for values at or beyond the usual limits of such assays. The settings on record: source organism: Brucella melitensis bv. 1 str. Rev.1.
In assay [7] the target is HLA-A*69:01. The description is as above. To be noted: source organism: Brucella melitensis bv. 1 str. Rev.1.
The target of a further assay is HLA-B*15:17. The assay is described as above.
Assay [8] addresses HLA-B*57:01. The assay is described as above. To be noted: source organism: Brucella melitensis bv. 1 str. Rev.1.
Assay [9] concerns the target HLA-A*11:01. The assay is described as follows: IEDB peptide-MHC binding, purified MHC/competitive/fluorescence; ≥ and ≤ were set here for values at or beyond the usual limits of such assays. To be noted: source organism: Variola virus.
The target of the next assay is HLA-A*68:02. The experiment in a line: IEDB peptide-MHC binding, purified MHC/direct/fluorescence; filed as Kd, often an IC50 or EC50 that approximates it; ≥ and ≤ were set here for values at or beyond the usual limits of such assays. The settings on record: source organism: Camelpox virus M-96.
Another assay has as its target HLA-B*08:02. Described as above. To be noted: source organism: Variola virus.
The next assay deals with HLA-B*08:03. Described as above. The settings on record: source organism: Variola virus.
In another assay the target is HLA-B*39:01. Described as above. The settings on record: source organism: Camelpox virus M-96.
In assay [10] the target is HLA-B*57:01. The assay is described as above. To be noted: source organism: Camelpox virus M-96.
Assay [11] has as its target HLA-A*01:01. The assay is described as follows: IEDB peptide-MHC binding, purified MHC/competitive/fluorescence; filed as Kd, often an IC50 or EC50 that approximates it; ≥ and ≤ were set here for values at or beyond the usual limits of such assays. The settings on record: source organism: Vaccinia virus WR.
The next assay concerns the target HLA-A*26:02. The description is as above. To be noted: source organism: Vaccinia virus WR.
The target in assay [12] is HLA-B*07:02. Described as above. The settings on record: source organism: Vaccinia virus WR.
Assay [13] deals with HLA-B*15:01. Described as above. The settings on record: source organism: Vaccinia virus WR.
Assay [14] deals with HLA-B*18:01. The assay is described as above. To be noted: source organism: Vaccinia virus WR.
Another assay has as its target HLA-B*35:01. The description is as above. To be noted: source organism: Vaccinia virus WR.
Another assay has as its target HLA-A*24:03. The experiment in a line: IEDB peptide-MHC binding, purified MHC/direct/fluorescence; filed as Kd, often an IC50 or EC50 that approximates it; ≥ and ≤ were set here for values at or beyond the usual limits of such assays. To be noted: source organism: Corynebacterium glutamicum.
Where [15] appears, read: source organism: Giardia lamblia ATCC 50803.
Where [16] appears, read: source organism: Brucella abortus.
Where [17] appears, read: source organism: Brucella suis ATCC 23445.
Setting [18] is: source organism: Camelpox virus M-96.
Where [19] appears, read: source organism: Corynebacterium glutamicum.

pIC50, pKd: −log10 of the molar value. Bounds are passed on as bounds.

As a reminder, the pKd is the Kd on a negative log10 scale, so that one unit is a factor of ten. Read a high pKd as a low Kd. With ASSWAPTQK, the pKd with HLA-A*01:01 [1] (setting [15]) is no more than 4.70; in the assay with HLA-A*02:01 (setting [15]), no more than 4.70; with HLA-A*03:01 (setting [15]) it was 6.29; with HLA-A*11:01 [2] (setting [15]), 7.76; with HLA-A*26:01 (setting [15]) it was no more than 4.70; in the assay with HLA-A*30:01 (setting [15]) it was 5.38. Further, the pKd with HLA-A*69:01 [3] (setting [15]), with HLA-B*07:02 [4] (setting [15]), in the assay with HLA-B*08:01 (setting [15]), with HLA-B*15:01 [5] (setting [15]), with HLA-B*27:05 (setting [15]) and in the assay with HLA-B*40:01 (setting [15]) was no more than 4.70 each time. For the same sequence, the pKd with HLA-B*44:02 and with HLA-B*58:01 (setting [15]) was no more than 4.70 in each case.

Consider FSDVSHWWQ, for which the pKd in the assay with HLA-A*01:01 [1] (setting [16]) was 6.39; with HLA-A*02:01 (setting [16]), no more than 4.70; with HLA-A*03:01 (setting [16]), no more than 4.70; in the assay with HLA-A*11:01 [2] (setting [16]), no more than 4.70; in the assay with HLA-A*26:01 (setting [17]) it was no more than 4.70; with HLA-A*31:01 (setting [16]), no more than 4.70. Also, the pKd in the assay with HLA-B*07:02 [4] (setting [16]), with HLA-B*08:01 (setting [17]), with HLA-B*15:01 [5] (setting [16]), in the assay with HLA-B*15:09, with HLA-B*18:01 [6] and with HLA-B*27:05 (setting [16]) was no more than 4.70 throughout. Further, the pKd is no more than 4.70 with HLA-B*38:01 (setting [17]); no more than 4.70 in the assay with HLA-B*40:01 (setting [16]); no more than 4.70 with HLA-B*46:01 (setting [16]); no more than 4.70 with HLA-B*48:01 (setting [16]); 5.68 in the assay with HLA-B*58:01 (setting [16]); no more than 4.70 with HLA-A*02:06. Moreover, the negative logarithm of the Kd (pKd) with HLA-A*69:01 [7], in the assay with HLA-B*15:17 (source organism: Brucella melitensis bv. 1 str. Rev.1) and in the assay with HLA-B*57:01 [8] was no more than 4.70 in each case.

As a reminder, the pIC50 is the negative decadic logarithm of the IC50, by convention in mol/L. Sequence IHIPGDTLF showed a pIC50 with HLA-A*11:01 [9] of no more than 3.82. The pKd with HLA-A*02:01 (setting [18]), with HLA-A*26:01 (source organism: Variola virus), with HLA-A*68:02, with HLA-A*69:01 [3] (setting [18]), in the assay with HLA-B*08:01 (source organism: Variola virus) and in the assay with HLA-B*08:02 was no more than 4.70 in each case. Moreover, the pKd in the assay with HLA-B*08:03 was no more than 4.70; with HLA-B*27:05 (setting [18]), no more than 4.70; with HLA-B*38:01 (source organism: Variola virus), 6.41; in the assay with HLA-B*39:01, no more than 4.70; with HLA-B*40:01 (setting [18]) it was no more than 4.70; with HLA-B*46:01 (setting [18]), no more than 4.70. Besides, the pKd with HLA-B*48:01 (setting [18]) was no more than 4.70; with HLA-B*57:01 [10], no more than 4.70; with HLA-B*58:01 (setting [18]), no more than 4.70; with HLA-A*01:01 [11], no more than 4.70; in the assay with HLA-A*26:02, no more than 4.70; with HLA-B*07:02 [12] it was no more than 5.30. Besides, the pKd was no more than 4.70 in the assay with HLA-B*15:01 [13], no more than 4.70 with HLA-B*15:17 (source organism: Vaccinia virus WR), no more than 4.70 in the assay with HLA-B*18:01 [14] and 6.44 in the assay with HLA-B*35:01.

With VHDREGNEV, the pKd with HLA-A*01:01 [1] (setting [19]), with HLA-A*02:01 (setting [19]), with HLA-A*03:01 (setting [19]), with HLA-A*11:01 [2] (setting [19]), with HLA-A*24:03 and with HLA-A*26:01 (setting [19]) was no more than 4.70 each time. The pKd was 5.32 in the assay with HLA-A*30:01 (setting [19]); no more than 4.70 with HLA-A*31:01 (setting [19]); no more than 4.70 in the assay with HLA-A*69:01 [3] (setting [19]); no more than 4.70 in the assay with HLA-B*08:01 (setting [19]); no more than 4.70 with HLA-B*15:01 [5] (setting [19]); no more than 4.70 with HLA-B*27:05 (setting [19]). The pKd in the assay with HLA-B*40:01 (setting [19]) and with HLA-B*58:01 (setting [19]) was no more than 4.70 in each case.
